Measurements published in patent EP2080771A2 (Maxygen Aps, dated 2009).
Where two headings read alike, the source gives them in different places.

T1: Interferon type I receptors on HeLa cells (UniProt P17181 28-557; P48551 27-515, limits assumed)
T1 sequence (looked up) 1: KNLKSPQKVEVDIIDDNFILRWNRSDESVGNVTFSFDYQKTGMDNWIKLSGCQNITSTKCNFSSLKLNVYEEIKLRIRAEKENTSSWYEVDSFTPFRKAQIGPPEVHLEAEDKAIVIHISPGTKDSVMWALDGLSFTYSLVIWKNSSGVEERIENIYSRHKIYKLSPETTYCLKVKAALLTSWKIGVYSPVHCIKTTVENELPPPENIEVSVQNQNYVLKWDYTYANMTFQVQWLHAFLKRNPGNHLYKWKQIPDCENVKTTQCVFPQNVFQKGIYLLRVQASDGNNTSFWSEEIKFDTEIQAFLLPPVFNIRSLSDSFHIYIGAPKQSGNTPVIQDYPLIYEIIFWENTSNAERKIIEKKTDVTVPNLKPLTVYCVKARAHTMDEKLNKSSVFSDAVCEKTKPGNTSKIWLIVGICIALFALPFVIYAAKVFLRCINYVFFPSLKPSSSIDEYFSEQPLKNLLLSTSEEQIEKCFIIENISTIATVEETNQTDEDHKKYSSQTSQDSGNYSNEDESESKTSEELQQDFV
T1 sequence (looked up) 2: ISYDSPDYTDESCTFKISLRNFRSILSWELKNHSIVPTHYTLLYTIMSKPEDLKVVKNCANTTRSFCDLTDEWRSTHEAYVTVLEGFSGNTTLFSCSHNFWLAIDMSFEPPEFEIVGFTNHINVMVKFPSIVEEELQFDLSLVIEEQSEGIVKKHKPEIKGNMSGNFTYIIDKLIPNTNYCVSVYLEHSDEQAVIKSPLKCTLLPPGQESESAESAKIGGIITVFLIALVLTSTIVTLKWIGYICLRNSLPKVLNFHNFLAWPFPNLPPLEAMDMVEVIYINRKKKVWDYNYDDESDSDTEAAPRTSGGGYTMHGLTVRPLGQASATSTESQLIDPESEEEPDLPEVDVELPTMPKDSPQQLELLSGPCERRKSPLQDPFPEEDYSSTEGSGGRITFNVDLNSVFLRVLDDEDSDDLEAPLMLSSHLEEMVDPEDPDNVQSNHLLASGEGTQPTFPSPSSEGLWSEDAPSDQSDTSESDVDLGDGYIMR


Assays:
Experiment in all cases: cell-based or functional assay
[1] = target: T1, Interferon type I receptors on HeLa …
[2] = target: T1, Interferon type I receptors on HeLa …; remark: listed apart in the source
[3] = target: T1, Interferon type I receptors on HeLa …; remark: listed apart in the source

Binder | INF-β activity, culture medium of transfected CHO K1 cells [1] [IU/ml] | INF-β activity, culture medium of transfected CHO K1 cells [2] [IU/ml] | specific activity relative to wt hINF-β [3]
[Q48V, Q49N, Q51T]hINF-β (ligand, introduced N-linked glycosylation site at position 49, besides the natural site at N80 (expressed in CHO K1 cells)) MSYNLLGFLQRSSNFQCQKLLWQLNGRLEYCLKDRMNFDIPEEIKQLVNFTKEDAALTIYEMLQNIFAIFRQDSSSTGWNETIVENLLANVYHQINHLKTVLEEKLEKEDFTRGKLMSSLHLKRYYGRILHYLKAKEYSHCAWTIVRVEILRNFYFINRLTGYLRN | 65900 | – | –
[D110F, F111N, R113T]hINF-β (ligand, introduced N-linked glycosylation site at position 111, besides the natural site at N80 (expressed in CHO K1 cells)) MSYNLLGFLQRSSNFQCQKLLWQLNGRLEYCLKDRMNFDIPEEIKQLQQFQKEDAALTIYEMLQNIFAIFRQDSSSTGWNETIVENLLANVYHQINHLKTVLEEKLEKEFNTTGKLMSSLHLKRYYGRILHYLKAKEYSHCAWTIVRVEILRNFYFINRLTGYLRN | – | 50900 | –
[F111N+R113T]hINF-β variant (ligand, introduced N-linked glycosylation site at position 111 (used only about 50%), besides the natural site at N80 (expressed in CHO K1 cells)) MSYNLLGFLQRSSNFQCQKLLWQLNGRLEYCLKDRMNFDIPEEIKQLQQFQKEDAALTIYEMLQNIFAIFRQDSSSTGWNETIVENLLANVYHQINHLKTVLEEKLEKEDNTTGKLMSSLHLKRYYGRILHYLKAKEYSHCAWTIVRVEILRNFYFINRLTGYLRN | – | 58600 | ~2 fold of wt hINF-β
[D110V, F111N, R113T]hINF-β (ligand, introduced N-linked glycosylation site at position 111, besides the natural site at N80 (expressed in CHO K1 cells)) MSYNLLGFLQRSSNFQCQKLLWQLNGRLEYCLKDRMNFDIPEEIKQLQQFQKEDAALTIYEMLQNIFAIFRQDSSSTGWNETIVENLLANVYHQINHLKTVLEEKLEKEVNTTGKLMSSLHLKRYYGRILHYLKAKEYSHCAWTIVRVEILRNFYFINRLTGYLRN | – | 15100 | –
[Q48W, Q49N, Q51T]hINF-β (ligand, introduced N-linked glycosylation site at position 49, besides the natural site at N80 (expressed in CHO K1 cells)) MSYNLLGFLQRSSNFQCQKLLWQLNGRLEYCLKDRMNFDIPEEIKQLWNFTKEDAALTIYEMLQNIFAIFRQDSSSTGWNETIVENLLANVYHQINHLKTVLEEKLEKEDFTRGKLMSSLHLKRYYGRILHYLKAKEYSHCAWTIVRVEILRNFYFINRLTGYLRN | 45100 | – | –
[Q48F, Q49N, Q51T]hINF-β (ligand, introduced N-linked glycosylation site at position 49, besides the natural site at N80 (expressed in CHO K1 cells)) MSYNLLGFLQRSSNFQCQKLLWQLNGRLEYCLKDRMNFDIPEEIKQLFNFTKEDAALTIYEMLQNIFAIFRQDSSSTGWNETIVENLLANVYHQINHLKTVLEEKLEKEDFTRGKLMSSLHLKRYYGRILHYLKAKEYSHCAWTIVRVEILRNFYFINRLTGYLRN | 53100 | – | –
[Q49N+Q51T]hINF-β variant (ligand, introduced N-linked glycosylation site at position 49 (used only about 60%), besides the natural site at N80 (expressed in CHO K1 cells)) MSYNLLGFLQRSSNFQCQKLLWQLNGRLEYCLKDRMNFDIPEEIKQLQNFTKEDAALTIYEMLQNIFAIFRQDSSSTGWNETIVENLLANVYHQINHLKTVLEEKLEKEDFTRGKLMSSLHLKRYYGRILHYLKAKEYSHCAWTIVRVEILRNFYFINRLTGYLRN | 135000 | – | –
